Laboratory results as given in patent publication US20030235860A1, “Interactions between AR, ER, TR2, and TR4” (priority 1999, published 2003).

T1: AR (Homo sapiens, UniProt P10275, DEL79-80/DUP473-473)
T1 sequence (P10275 with tags, fused parts or gaps DEL79-80/DUP473-473): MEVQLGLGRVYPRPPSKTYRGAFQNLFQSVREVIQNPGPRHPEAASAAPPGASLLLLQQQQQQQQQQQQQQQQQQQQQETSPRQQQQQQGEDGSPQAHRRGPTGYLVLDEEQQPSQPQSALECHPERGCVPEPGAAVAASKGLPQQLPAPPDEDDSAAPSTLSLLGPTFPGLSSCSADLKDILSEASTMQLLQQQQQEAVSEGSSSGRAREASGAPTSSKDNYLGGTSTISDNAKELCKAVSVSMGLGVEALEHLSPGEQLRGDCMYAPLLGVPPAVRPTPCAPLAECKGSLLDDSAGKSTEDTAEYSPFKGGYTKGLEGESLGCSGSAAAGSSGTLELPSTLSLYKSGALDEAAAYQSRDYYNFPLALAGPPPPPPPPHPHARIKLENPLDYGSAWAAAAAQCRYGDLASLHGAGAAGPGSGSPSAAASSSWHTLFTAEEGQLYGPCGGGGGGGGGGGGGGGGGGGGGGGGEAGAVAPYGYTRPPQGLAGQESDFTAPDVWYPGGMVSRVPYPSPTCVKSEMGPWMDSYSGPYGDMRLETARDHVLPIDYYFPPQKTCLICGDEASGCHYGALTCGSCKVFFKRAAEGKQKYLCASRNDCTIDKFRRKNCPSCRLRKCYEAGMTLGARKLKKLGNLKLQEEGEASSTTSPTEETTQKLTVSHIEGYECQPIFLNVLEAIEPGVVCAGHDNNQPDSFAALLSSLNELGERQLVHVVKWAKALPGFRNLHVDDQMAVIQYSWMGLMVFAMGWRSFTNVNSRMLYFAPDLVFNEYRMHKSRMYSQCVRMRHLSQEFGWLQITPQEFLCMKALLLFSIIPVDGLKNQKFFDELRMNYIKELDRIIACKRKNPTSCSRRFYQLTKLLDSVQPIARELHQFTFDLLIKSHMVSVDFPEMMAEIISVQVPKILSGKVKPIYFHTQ


Target: T1, AR
Experiment: AR-mediated transactivation reporter assay (MMTV / PSA reporters)
Format: cell-based
Parameters: A full-length AR(pSG5AR) was co-transfected with GAL4-TR4E; expressed in transfected cells; host or cells: COS, H1299, CHO, DU145, PC-3
Details: for Transactivation by the AR receptor: similar procedures, no details given; for Activity AR (effect of regulator on transcription activity): Table 5
Source text: Cells were routinely maintained in DMEM with 10% heat-inactivated fetal bovine serum. The cells were transfected using a modified calcium phosphate precipitation method, Mizokami, & Chang, J: Biol. Chem. 269,25655-25659 (1994), or SuperFect (Qiagen). To normalize the transfection efficiency, the (3-galactosidase expression ver and pRL-TK were co-transfected in CAT assay and in Dual-luciferase reporter assay system (Promega), respectively.
Like TR4, AR itself acts as a transcription factor to activate many androgen target genes. 500 ng of MMTV-Luc (FIG. 4A), or PSA-Luc (FIG. 4B), were co-transfected with 40 ng pCMV-AR (lane 2-3) with increasing amounts of pCMX-TR4 (as indicated in FIG. 4). […] After 16-18 hours incubation, cells were harvested for Dual-rnciferase reporter assay. As expected, in COS, H1299, and CHO cells, AR activated MMTV luciferase activity in a DHT-dependent manner (FIG. 4A, lanes 2 and 3), which could then be repressed by the addition of TR4 (lanes 6 to 8). […] Similar suppression effects also occurred when the MMTV-ruciferase reporter was replaced with the PSA-Iuciferase reporter, another AR target gene (FIG. 4B).
As GR and PR can also induce MMTV—luciferase reporter, Beato, M., Ce//56, 335-344 (1989), determining if TR4 could also repress OR- or PR-mediated transactivation was analyzed. Three μg of MMTV-Luc was co-transfected with 4 μg of pCMX-TR4 in the presence of 1 μg of pSG5AR, pSG5GR, or pSG5PR by modified calcium-phosphate method. […] Dual-luciferase reporter assays were performed. PRL-TK was used to normalize the transfection efficiency. […] Similar results were observed when the same experiments of AR-mediated transactivation were repeated in DU145 cells.
Human prostate cancer PC-3 cells were maintained in DMEM containing penicillin (25 units/ml), streptomycin ([…]), and 5% FCS. Human prostate cancer LNCaP cells were maintained in RPMI 1640 containing penicillin (25 units/ml), streptomycin ([…]), and 10% FCS. PC-3 cell were transfected using the calcium phosphate precipitation method as described previously [Mu X. M. et al. (1998) Endocrine 9:27-32], and LNCaP cells were transfected by using Superfect™ according to the manufacturer's procedures (Qiagen, Chatsworth, Calif.). CAT assay was performed as described previously [Lee Y. et al. (1999) Proc Natl Acad Sci USA 96:14724-14729], and is herein incorporated by reference at least for material related to the CAT assays].

AR-activated MMTV luciferase activity (similar with PSA-luciferase) (COS, H1299 and CHO cells, 10 nM DHT, increasing pCMX-TR4)	AR-mediated MMTV-luciferase transactivation (H1299 cells (similar in DU145), 4 μg pCMX-TR4, 10 nM DHT)	Molecule	Transactivation by the AR receptor	MMTV-CAT and PSA-CAT activity (PC-3 cells, 10 nM DHT, 2, 4 and 7 μg pCMV-TR2)	AR-mediated transcription (MMTV-Luc) (PC-3 cells, Example 2)	Activity AR (effect of regulator on transcription activity)
		RXR: retinoid X receptor, another member of the steroid receptor superfamily	suppress			
		TR2: human testicular orphan nuclear receptor 2, 603 amino acids (protein, UniProt P13056 1-603, looked up, full-length, human testicular orphan nuclear receptor 2, 603 amino acids) MATIEEIAHQIIEQQMGEIVTEQQTGQKIQIVTALDHNTQGKQFILTNHDGSTPSKVILARQDSTPGKVFLTTPDAAGVNQLFFTTPDLSAQHLQLLTDNSPDQGPNKVFDLCVVCGDKASGRHYGAVTCEGCKGFFKRSIRKNLVYSCRGSKDCIINKHHRNRCQYCRLQRCIAFGMKQDSVQCERKPIEVSREKSSNCAASTEKIYIRKDLRSPLTATPTFVTDSESTRSTGLLDSGMFMNIHPSGVKTESAVLMTSDKAESCQGDLSTLANVVTSLANLGKTKDLSQNSNEMSMIESLSNDDTSLCEFQEMQTNGDVSRAFDTLAKALNPGESTACQSSVAGMEGSVHLITGDSSINYTEKEGPLLSDSHVAFRLTMPSPMPEYLNVHYIGESASRLLFLSMHWALSIPSFQALGQENSISLVKAYWNELFTLGLAQCWQVMNVATILATFVNCLHNSLQQDKMSTERRKLLMEHIFKLQEFCNSMVKLCIDGYEYAYLKAIVLFSPDHPSLENMEQIEKFQEKAYVEFQDYITKTYPDDTYRLSRLLLRLPALRLMNATITEELFFKGLIGNIRIDSVIPHILKMEPADYNSQIIGHSI	suppress	strongly suppresses	suppress	Down
repressed	repress	TR4: human testicular orphan nuclear receptor 4, SEQ ID NO:16; expressed from plasmid or in vitro translated (protein) MTSPSPRIQIISTDSAVASPQRIQGSEPASGPLSVFTSLNKEKIVTDQQTGQKIQIVTAVDASGSPKQQFILTSPDGAGTGKVILASPETSSAKQLIFTTSDNLVPGRIQIVTDSASVERLLGKTDVQRPQVVEYCVVCGDKASGRHYGAVSCEGCKGFFKRSVRKNLTYSCRSSQDCIINKHHRNRCQFCRLKKCLEMGMKMESVQSERKPFDVQREKPSNCAASTEKIYIRKDLRSPLIATPTFVADKDGARQTGLLDPGMLVNIQQPLIREDGTVLLATDSKAETSQGALGTLANVVTSLANLSESLNNGDTSEIQPEDQSASEITRAFDTLAKALNTTDSSSSPSLADGIDTSGGGSIHVISRDQSTPIIEVEGPLLSDTHVTFKLTMPSPMPEYLNVHYICESASRLLFLSMHRARSIPAFQGLGQDCNTSLVRACWNELFTLGLAQCAQVMSLSTILAAIVNHLQNSIQEDKLSGDRIKQVMEHIWKLQEFCNSMANWDIDGYEYAYLKAIVLFSPDHPGLTSTSQIEKFQEKAQMELQDYVQKTYSEDTYRLARILVRLPALRLMSSNITEELFFTGLIGNVSIDSIIPYILKMETAEYNGQITGVSL				Down
